According to patent US12129308 (Merck KGaA, dated 2024):
Where two headings read alike, the source gives them in different places. One block for each binder: values may come before it.

What was measured:
[1] = molecular target: T1, Aggrecan; experiment: competition ELISA (CAP) on Aggrecan; competitor not stated
T1 construct: also called CAP

[2] = molecular target: T2, activated human MMP13 (human, UniProt P45452 104-471); experiment: cell-based or functional assay
[3] = molecular target: T2, activated human MMP13; experiment: cell-based or functional assay; remark: listed apart in the source
[4] = molecular target: bovine MMP13 (bovine, UniProt O77656 104-471); experiment: cell-based or functional assay
[5] = molecular target: T3, activated dog MMP13 (dog, UniProt P45452 104-471 (human entry)); experiment: cell-based or functional assay
[6] = molecular target: cynomolgus MMP13 (cynomolgus, UniProt A0A2K5U988 104-471); experiment: cell-based or functional assay
[7] = molecular target: T4, activated rat MMP13 (rat, UniProt P23097 99-466); experiment: cell-based or functional assay
[8] = molecular target: T5, activated MMP13 (species not stated) (Homo sapiens (Human), UniProt P45452 104-471, Biotinylated in the TIMP-2 competition ELISA (sites not given). Activated form: pro-peptide removed.); experiment: TIMP-2 competition ELISA; Nanobody pre-incubated with 1.26 nM activated MMP13-biotin, binding to captured TIMP-2
T5 construct: campaign 4 ELISA; Probably human

[9] = molecular target: T5, activated MMP13 (species not stated); experiment: cell-based or functional assay
[10] = molecular target: T2, activated human MMP13; experiment: cell-based or functional assay; remark: listed apart in the source
[11] = molecular target: T4, activated rat MMP13; experiment: cell-based or functional assay; remark: listed apart in the source
[12] = molecular target: T2, activated human MMP13; experiment: cell-based or functional assay; remark: listed apart in the source
[13] = molecular target: T2, activated human MMP13; experiment: ELISA; activated MMP13 captured via mAb511, Nanobody detected with anti-FLAG-HRP
Method: (§1) After a washing step in PBS+0.05% Tween20, 20 nM activated human, rat or dog MMP13 were added for one hour at RT. After a second washing step, 10-fold dilutions of periplasmic extracts or dilution series of purified Nanobodies in PBS, 0.1% casein, 0.05% Tween 20 were added for one hour at RT. Bound Nanobodies were detected with mouse anti-FLAG-HRP (Sigma (A8592)).

[14] = molecular target: T3, activated dog MMP13; experiment: as above
Method: as §1

[15] = molecular target: T4, activated rat MMP13; experiment: as above
Method: as §1

[16] = molecular target: T2, activated human MMP13; experiment: competition ELISA: dilution series of Nanobody against 0.6 nM biotinylated 40E09 (C0101040E09-biotin) on APMA-activated human full-length MMP13 captured via mouse anti-human MMP13 mAb MAB511

IC50 [1]: 0.99 nM
potency, human fluorogenic peptide assay [2]: 1.08 nM
B1: C010100681 (bispecific antibody)
chain: EVQLVESGGGLVQPGGSLRLSCAASGFTLAYYSIGWFRQAPGKEREGVSCISSGIDGSTYYADSVKGRFTISRDNAKNTMYLQMNNLKPEDTGVYYCAADPSHYYSEYDCGYYGMDYWGKGTLVTVSSGGGGSGGGGSGGGGSGGGGSGGGGSGGGGSGGGGSEVQLVESGGGLVQPGGSLRLSCAASGSTFIINVVRWYRRAPGKQRELVATISSGGNANYVDSVRGRFTISRDNSKNTVYLQMNSLRPEDTAVYYCNVPTTHYGGVYYGPYWGQGTLVTVSSGGGGSGGGGSGGGGSGGGGSGGGGSGGGGSGGGGSEVQLVESGGGLVQPGGSLRLSCAASGSTFIINVVRWYRRAPGKQRELVATISSGGNANYVDSVRGRFTISRDNSKNTVYLQMNSLRPEDTAVYYCNVPTTHYGGVYYGPYWGQGTLVTVSS
notes: MMP13-Aggrecan bispecific Nanobody construct; also called 80A01-114F08SO-114F08SO

IC50 [1]: 0.12 nM
potency, human fluorogenic peptide assay [2]: 0.0771 nM
B2: C010100702 (bispecific antibody)
chain: EVQLVESGGGLVQPGGSLRLSCAASGRTFSSYAMGWFRQAPGKEREFVAAISWSGGSTYYADSVKGRFTISRDNSKNTVYLQMNSLRPEDTAVYYCTAALAVYGPSRYRYGPVGEYQYWGQGTLVTVSSGGGGSGGGGSGGGGSGGGGSGGGGSGGGGSGGGGSEVQLVESGGGSVQPGGSLRLSCAASGSTFSRYSMNWYRQAPGKQREFVAGISVGRITNYAVSVRGRFTISRDNSEGTGYLQMNSLRPEDTAVYYCNAGGLQGYWGLGTLVTVSSGGGGSGGGGSGGGGSGGGGSGGGGSGGGGSGGGGSEVQLVESGGGLVQPGGSLRLSCAASGSTFIINVVRWYRRAPGKQRELVATISSGGNANYVDSVRGRFTISRDNSKNTVYLQMNSLRPEDTAVYYCNVPTTHYGGVYYGPYWGQGTLVTVSSGGGGSGGGGSGGGGSGGGGSGGGGSGGGGSGGGGSEVQLVESGGGLVQPGGSLRLSCAASGSTFIINVVRWYRRAPGKQRELVATISSGGNANYVDSVRGRFTISRDNSKNTVYLQMNSLRPEDTAVYYCNVPTTHYGGVYYGPYWGQGTLVTVSS
notes: also called 517A01SO-40E09SOvar-114F08SO-114F08SO

IC50 [1]: 21 nM
potency, human fluorogenic peptide assay [2]: 0.541 nM
B3: C010100729 (bispecific antibody)
chain: DVQLVESGGGLVQPGGSLRLSCAASGRTFSSYAMGWFRQAPGKEREFVAAISWSGGSTYYADSVKGRFTISRDNSKNTVYLQMNSLRPEDTAVYYCTAALAVYGPSRYRYGPVGEYQYWGQGTLVTVSSGGGGSGGGGSGGGGSGGGGSGGGGSGGGGSGGGGSEVQLVESGGGLVQPGGSLRLSCAASGSTFSRYSMNWYRQAPGKQREFVAGISVGRITNYAVSVKGRFTISRDNSKNTGYLQMNSLRPEDTAVYYCNAGGLQGYWGQGTLVTVSSGGGGSGGGGSGGGGSGGGGSGGGGSGGGGSGGGGSEVQLVESGGGLVQPGGSLRLSCAASGRTFSSYTMGWFRQAPGKEREFVAAISWSGGRTYYADSVKGRFTISRDNSKNTVYLQMNSLRPEDTAVYYCAAYRRRRASSNRGLWDYWGQGTLVTVSSA
notes: also called 517A01SO-40E09SO-604F02SO-A

IC50 [1]: 24 nM
potency, human fluorogenic peptide assay [2]: 2.42 nM
B4: C010100690 (bispecific antibody)
chain: EVQLVESGGGLVQPGGSLRLSCAASGFTLAYYSIGWFRQAPGKEREGVSCISSGIDGSTYYADSVKGRFTISRDNAKNTMYLQMNNLKPEDTGVYYCAADPSHYYSEYDCGYYGMDYWGKGTLVTVSSGGGGSGGGGSGGGGSGGGGSGGGGSGGGGSGGGGSEVQLVESGGGLVQPGGSLRLSCAASGRTFSSYTMGWFRQAPGKEREFVAAISWSGGRTYYADSVKGRFTISRDNSKNTVYLQMNSLRPEDTAVYYCAAYRRRRASSNRGLWDYWGQGTLVTVSS
notes: MMP13-Aggrecan bispecific Nanobody construct; also called 80A01-604F02SO

IC50 [1]: 32 nM
potency, human fluorogenic peptide assay [2]: 0.697 nM
B5: C010100724 (bispecific antibody)
chain: DVQLVESGGGLVQPGGSLRLSCAASGSIFSINAMGWYRQAPGKQRELVAAISSGGSTYYADSVKGRFTISRDNSKNTVYLQMNSLRPEDTAVYYCNAAVDASRGLPYELYYYWGQGTLVTVSSGGGGSGGGGSGGGGSGGGGSGGGGSGGGGSGGGGSEVQLVESGGGLVQPGGSLRLSCAASGRTFSSYTMGWFRQAPGKEREFVAAISWSGGRTYYADSVKGRFTISRDNSKNTVYLQMNSLRPEDTAVYYCAAYRRRRASSNRGLWDYWGQGTLVTVSSA
notes: MMP13-Aggrecan bispecific Nanobody construct; also called 529C12SO-604F02SO-A

IC50, human collagenolytic assay [3]: 2.3 nM
IC50, human fluorogenic collagen assay [3]: 10.9 nM
IC50, human fluorogenic peptide assay [3]: 4.6 nM
IC50, bovine fluorogenic peptide assay [4]: 6.4 nM
IC50, dog fluorogenic peptide assay [5]: 3.4 nM
IC50, cyno fluorogenic peptide assay [6]: 3 nM
IC50, rat fluorogenic peptide assay [7]: 2.1 nM
IC50 [8]: 2.6 nM
IC50, fluorogenic peptide assay [9]: 2.5 nM
IC50, human fluorogenic collagen assay [10]: 10.8 nM
IC50, (adapted) rat fluorogenic peptide assay [11]: 2.64 nM
B6: C0101PMP517A01 (VHH)
VHH: DVQLVESGGGLVQPGGSLRLSCAASGRTFSSYAMGWFRQAPGKEREFVAAISWSGGSTYYADSVKGRFTISRDNSKNTVYLQMNSLRPEDTAVYYCTAALAVYGPNRYRYGPVGEYNYWGQGTLVTVSS
notes: Profile 2 Nanobody; also called C0101517A01; C010100087 (parental)

IC50, human collagenolytic assay [3]: 10.2 nM
IC50 (read off the curve); fluorogenic Collagen assay, partial inhibition [left graph] [12]: ~20 nM
EC50 [13]: 0.66 nM
EC50 [14]: 0.38 nM
EC50 [15]: 0.44 nM
IC50 (read off the curve) [16]: ~4 nM
B7: C0101PMP040E09 (VHH)
VHH: EVQLVESGGGSVQAGGSLRLSCAASGSTFSRYSMNWYRQAPGKQREFVAGISVGRITNYAVSVRGRFTISRDNAEGTGYLQMNSLKPEDTAVYYCNAGGLQGYWGLGTQVTVSS
notes: Profile 1 Nanobody; also called C0101040E09

IC50 [1]: 0.45 nM
potency, human fluorogenic peptide assay [2]: 0.551 nM
B8: C010100682 (bispecific antibody)
chain: EVQLVESGGGLVQPGGSLRLSCAASGSIFSINAMGWYRQAPGKQRELVAAISSGGSTYYADSVKGRFTISRDNSKNTVYLQMNSLRPEDTAVYYCNAAVDASRGLPYELYYYWGQGTLVTVSSGGGGSGGGGSGGGGSGGGGSGGGGSGGGGSGGGGSEVQLVESGGGLVQPGGSLRLSCAASGSTFIINVVRWYRRAPGKQRELVATISSGGNANYVDSVRGRFTISRDNSKNTVYLQMNSLRPEDTAVYYCNVPTTHYGGVYYGPYWGQGTLVTVSSGGGGSGGGGSGGGGSGGGGSGGGGSGGGGSGGGGSEVQLVESGGGLVQPGGSLRLSCAASGSTFIINVVRWYRRAPGKQRELVATISSGGNANYVDSVRGRFTISRDNSKNTVYLQMNSLRPEDTAVYYCNVPTTHYGGVYYGPYWGQGTLVTVSS
notes: MMP13-Aggrecan bispecific Nanobody construct; also called 529C12SO-114F08SO-114F08SO
